# Literature values in patent US7951914B2, “Genetically modified cyclic-nucleotide controlled ion channels” (Forschungszentrum Julich GmbH, priority 2001, dated 2011).
# T1: CNG channels comprising the α3 subunits from the epithelium of the nose (Bos taurus, UniProt Q03041)
# T1 sequence (Q03041 1-663): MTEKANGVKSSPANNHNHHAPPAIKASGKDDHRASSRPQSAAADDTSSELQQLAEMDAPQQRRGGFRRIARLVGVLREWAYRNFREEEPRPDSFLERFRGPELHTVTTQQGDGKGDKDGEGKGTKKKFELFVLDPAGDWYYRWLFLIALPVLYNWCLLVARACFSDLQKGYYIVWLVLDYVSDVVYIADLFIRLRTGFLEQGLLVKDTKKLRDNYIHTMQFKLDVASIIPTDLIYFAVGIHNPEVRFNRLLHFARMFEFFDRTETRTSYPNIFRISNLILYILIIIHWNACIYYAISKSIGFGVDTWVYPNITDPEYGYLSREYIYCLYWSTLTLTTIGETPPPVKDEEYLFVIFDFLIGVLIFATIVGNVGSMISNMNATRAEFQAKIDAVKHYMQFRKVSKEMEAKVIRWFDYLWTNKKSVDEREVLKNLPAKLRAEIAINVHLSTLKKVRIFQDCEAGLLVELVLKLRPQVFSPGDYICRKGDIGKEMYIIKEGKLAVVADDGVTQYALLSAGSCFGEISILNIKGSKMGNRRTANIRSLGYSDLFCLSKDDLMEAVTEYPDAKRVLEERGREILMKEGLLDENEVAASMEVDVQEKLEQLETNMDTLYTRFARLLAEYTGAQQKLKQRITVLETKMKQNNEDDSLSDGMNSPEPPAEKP
# Target: T1, CNG channels comprising the α3 subunits from the epithelium of the nose
# Conditions: Dhallan 1990; Ludwig 1990; cited from earlier work
molecule,measurement,value
"CNG channels comprising the α3 subunits: prior-art CNG channels of α3 subunits from the epithelium of the nose (protein, UniProt Q16280 1-664, looked up) Cyclic nucleotide-gated …: MTEKTNGVKSSPANNHNHHAPPAIKANGKDDHRTSSRPHSAADDDTSSELQRLADVDAPQQGRSGFRRIVRLVGIIREWANKNFREEEPRPDSFLERFRGPELQTVTTQEGDGKGDKDGEDKGTKKKFELFVLDPAGDWYYCWLFVIAMPVLYNWCLLVARACFSDLQKGYYLVWLVLDYVSDVVYIADLFIRLRTGFLEQGLLVKDTKKLRDNYIHTLQFKLDVASIIPTDLIYFAVDIHSPEVRFNRLLHFARMFEFFDRTETRTNYPNIFRISNLVLYILVIIHWNACIYYAISKSIGFGVDTWVYPNITDPEYGYLAREYIYCLYWSTLTLTTIGETPPPVKDEEYLFVIFDFLIGVLIFATIVGNVGSMISNMNATRAEFQAKIDAVKHYMQFRKVSKGMEAKVIRWFDYLWTNKKTVDEREILKNLPAKLRAEIAINVHLSTLKKVRIFHDCEAGLLVELVLKLRPQVFSPGDYICRKGDIGKEMYIIKEGKLAVVADDGVTQYALLSAGSCFGEISILNIKGSKMGNRRTANIRSLGYSDLFCLSKDDLMEAVTEYPDAKKVLEERGREILMKEGLLDENEVATSMEVDVQEKLGQLETNMETLYTRFGRLLAEYTGAQQKLKQRITVLETKMKQNNEDDYLSDGMNSPELAAADEP",cGMP concentration that activates the channels,2 µM
